Columns and labels:
[1] = molecular target: NFAT (mouse (endogenous in NIH3T3)) (UniProt Q60591)
[2] = molecular target: NF-kB (mouse (endogenous in NIH3T3))

Chain of UniProt Q60591 (Q60591 whole entry): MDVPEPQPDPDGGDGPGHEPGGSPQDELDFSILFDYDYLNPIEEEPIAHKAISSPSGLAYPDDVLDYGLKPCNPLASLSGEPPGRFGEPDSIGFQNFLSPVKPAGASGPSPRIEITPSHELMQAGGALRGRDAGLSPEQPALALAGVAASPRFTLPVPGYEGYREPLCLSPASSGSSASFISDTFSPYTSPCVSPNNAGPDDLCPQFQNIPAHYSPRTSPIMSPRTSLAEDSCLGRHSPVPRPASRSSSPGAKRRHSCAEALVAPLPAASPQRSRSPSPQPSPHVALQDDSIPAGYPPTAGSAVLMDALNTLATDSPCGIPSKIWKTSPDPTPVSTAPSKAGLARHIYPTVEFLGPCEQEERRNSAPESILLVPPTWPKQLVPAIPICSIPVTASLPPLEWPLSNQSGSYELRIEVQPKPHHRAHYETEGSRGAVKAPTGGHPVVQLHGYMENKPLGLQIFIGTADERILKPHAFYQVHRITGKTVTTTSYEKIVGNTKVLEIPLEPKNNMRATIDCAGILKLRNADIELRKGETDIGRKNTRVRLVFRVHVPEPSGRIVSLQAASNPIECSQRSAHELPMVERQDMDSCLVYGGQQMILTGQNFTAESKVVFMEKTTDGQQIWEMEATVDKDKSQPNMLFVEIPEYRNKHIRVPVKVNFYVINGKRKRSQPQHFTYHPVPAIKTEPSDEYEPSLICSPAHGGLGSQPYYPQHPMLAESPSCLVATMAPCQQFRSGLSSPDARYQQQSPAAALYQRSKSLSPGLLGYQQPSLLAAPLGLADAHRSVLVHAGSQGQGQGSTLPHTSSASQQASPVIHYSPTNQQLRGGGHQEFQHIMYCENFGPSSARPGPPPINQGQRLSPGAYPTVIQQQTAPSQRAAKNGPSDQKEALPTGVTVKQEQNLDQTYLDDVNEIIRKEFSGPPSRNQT

FOXP3Δ2 (natural protein) showed an NFAT-mediated transcription of luciferase (pNFAT-TA-Luc) in NIH3T3 cells co-transfected with the FOXP3 isoform; induction without FOXP3 set 100% [1] of 50% and an NF-kB-mediated transcription of luciferase (pNF-κB-Luc) in NIH3T3 cells co-transfected with the FOXP3 isoform; level left, induction without FOXP3 set 100% [2] of 9%.

Source: PMC2699478
